Assay results as given in patent US5985836A, “Alpha-1 proteinase inhibitor binding peptides” (Bayer Corporation, priority 1998, dated 1999).
Ends that are not written are not given here.

Tests used:
[1] = biological target: T1, apolipoprotein alpha-1 (Apo A-1) (Homo sapiens, UniProt P02647); assay: Purification from Effluent II+III, Apo A-1 mass balance; assay type: binding; details: 1 ml Eff. II+III, 4° C.; for Mass Protein per Eluate Fraction, 2% Acetic Acid: * as in Tables 4, 5 (below detection limit)
T1 construct: Eff; II+III is a process intermediate in the Cohn plasma fractionation process; tissue Bayer Corporation (Clayton, N.C.); host or cells: plasma fraction: Cohn Effluent II+III
T1 sequence (P02647 19-267): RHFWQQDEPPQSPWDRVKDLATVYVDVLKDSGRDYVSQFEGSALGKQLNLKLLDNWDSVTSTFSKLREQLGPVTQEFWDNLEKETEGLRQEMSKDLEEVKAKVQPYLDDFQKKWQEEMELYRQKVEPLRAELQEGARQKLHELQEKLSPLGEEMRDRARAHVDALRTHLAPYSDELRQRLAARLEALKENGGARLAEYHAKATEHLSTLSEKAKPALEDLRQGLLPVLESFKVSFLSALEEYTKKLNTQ
In short: (§1)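 Peptide-ligand columns were loaded with 1 ml Cohn Effluent II+III (20% v/v ethanol, 20-25 mg/ml hSA, ~1 mg/ml A1PI, other plasma proteins at 0.1-1 mg/ml) using a 10 min residence time at 4° C. Step elutions at 865 μl/min used 1M NaCl, 3M NaCl, then 2% acetic acid, and protein mass balances were tracked across fractions.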

[2] = biological target: T2, A1PI (Homo sapiens, UniProt P01009); assay: A1PI binding on peptide-resin column, injection of 1 mg A1PI in equilibration buffer; details: 1 mg A1PI in equilibration buffer; for Percent A1PI Eluted by Fraction Based on Absorbance at 280 nm, 1M NaCl / Percent A1PI Eluted by Fraction Based on Absorbance at 280 nm, 2% Acetic Acid / Percent A1PI Eluted by Fraction Based on Absorbance at 280 nm, Flowthrough: 4° C.; for Percent A1PI Eluted by Fraction, 1M NaCl / Percent A1PI Eluted by Fraction, 2% Acetic Acid / Percent A1PI Eluted by Fraction, Flowthrough: 20° C.
T2 construct: Human plasma is currently the only approved source of therapeutic AlPI
T2 sequence (P01009 25-418): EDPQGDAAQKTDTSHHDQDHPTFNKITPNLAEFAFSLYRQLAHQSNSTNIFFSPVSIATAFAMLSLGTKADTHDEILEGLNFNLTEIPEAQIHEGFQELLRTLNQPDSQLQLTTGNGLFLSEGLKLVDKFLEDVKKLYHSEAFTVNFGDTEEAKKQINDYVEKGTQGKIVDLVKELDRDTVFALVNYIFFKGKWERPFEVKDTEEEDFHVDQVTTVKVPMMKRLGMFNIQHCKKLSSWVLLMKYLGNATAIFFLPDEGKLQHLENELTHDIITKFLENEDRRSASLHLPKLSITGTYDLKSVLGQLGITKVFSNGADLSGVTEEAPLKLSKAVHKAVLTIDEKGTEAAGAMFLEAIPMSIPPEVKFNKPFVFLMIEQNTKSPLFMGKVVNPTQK
In short: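 Peptides synthesized on A-Totda-Toyopearl chelate resin (0.1 mmole/g) packed in 0.4×5 cm columns; 1 mg A1PI injected in equilibration buffer at 4 °C or 20 °C, 865 or 523 μl/min. Flowthrough, 1M/3M NaCl washes and 2% acetic acid eluate quantified by A280 or immunonephelometry as percent of total eluted.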

[3] = tested on: Immunoglobulin G (IgG); assay: Purification from Effluent II+III, IgG mass balance; assay type: binding, human; details: 1 ml Eff. II+III, 4° C.
In short: as §1

[4] = tested on: Immunoglobulin A (IgA); assay: Purification from Effluent II+III, IgA mass balance; assay type: binding, human; details: 1 ml Eff. II+III, 4° C.; for Mass Protein per Eluate Fraction, 1M NaCl / Mass Protein per Eluate Fraction, 2% Acetic Acid / Mass Protein per Eluate Fraction, Flow: * as in Tables 4, 5 (below detection limit)
In short: as §1

[5] = biological target: T2, A1PI; assay: A1PI purification from 5 mg hSA + 1 mg A1PI on peptide column, A1PI mass balance; assay type: binding; details: A1PI, 5 mg hSA + 1 mg A1PI; for Percent Eluted by Fraction, 1M NaCl / Percent Eluted by Fraction, 2% Ac. Acid / Percent Eluted by Fraction, 3M NaCl / Percent Eluted by Fraction, Flow: relative to total eluted
In short: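 Peptides on A-Totda-Toyopearl resin (0.1 mmole/g) in 0.4×5 cm columns; 5 mg hSA + 1 mg A1PI loaded at 4 °C or 20 °C with 10 min residence (17 μl/min). Steps of 1M and 3M NaCl, then 2% acetic acid; fractions quantified by immunonephelometry for mass balance.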

[6] = biological target: T2, A1PI; assay: Purification of A1PI from Effluent II+III on peptide column, A1PI mass balance; assay type: binding; details: A1PI, 1 ml Eff. II+III, 4° C.; for Mass Protein per Eluate Fraction, 1M NaCl / Mass Protein per Eluate Fraction, 2% Acetic Acid / Mass Protein per Eluate Fraction, Flow: * as in Tables 4, 5 (below detection limit)
In short: as §1

[7] = biological target: T2, A1PI; assay: Capture and elution of active A1PI with 2M urea buffer (elastase inhibition activity assay and immunonephelometry); assay type: binding; details: 4° C.; for Mass A1PI in Urea Eluate (mg), Activity / Mass A1PI in Urea Eluate (mg), Nephelometry: 1 mg A1PI, eluted with 2M urea, pH 6; for Mass A1PI in Urea Eluate (mg), Activity: elastase inhibition activity assay; for Mass A1PI in Urea Eluate (mg), Nephelometry: immunonephelometry; for Specific Activity: mass of A1PI by activity assay relative to immunonephelometry, urea eluate
[8] = biological target: T2, A1PI; assay: A1PI yield from dialyzed (aqueous) Effluent II+III; assay type: binding; details: 4° C.
Experimental: Effluent II+III was dialyzed against equilibration buffer at 4° C. to remove the ethanol using a 15,000 molecular weight cut-off membrane. Nephelometry of the Eff. […] A portion of the identified sequences were assayed under the same conditions applied for neat Eff. II+III at 4° C. […] II+III compared to the neat, ethanol-containing feed. The binding strength differed for the aqueous feed as more AlPI eluted in 1M NaCl for the aqueous feed. The AlPI eluted in the 1M NaCl fractions was not as enriched as that eluted in the acid eluates.

[9] = * as in Tables 4, 5 (below detection limit)
[10] = 20° C., * Below detection limit
[11] = 1 ml dialyzed Eff. II+III (ethanol removed)
[12] = A1PI, 1 ml dialyzed Eff. II+III

RFIYYT
Percent Eluted by Fraction, 1M NaCl [1]: 0% | Percent Eluted by Fraction, 2% Acetic Acid [1]: 100% | Percent Eluted by Fraction, 3M NaCl [1]: 0% | Percent Eluted by Fraction, Flow [1]: 0% | Mass Protein per Eluate Fraction, 2% Acetic Acid [1]: 0.37 mg | Percent A1PI Eluted by Fraction Based on Absorbance at 280 nm, 1M NaCl [2]: 57% | Percent A1PI Eluted by Fraction Based on Absorbance at 280 nm, 2% Acetic Acid [2]: 43% | Percent A1PI Eluted by Fraction Based on Absorbance at 280 nm, Flowthrough [2]: 0% | Percent A1PI Eluted by Fraction, 1M NaCl [2]: 64% | Percent A1PI Eluted by Fraction, 2% Acetic Acid [2]: 36% | Percent A1PI Eluted by Fraction, Flowthrough [2]: 0% | Percent Eluted by Fraction, 1M NaCl [3]: 7% | Percent Eluted by Fraction, 2% Acetic Acid [3]: 7% | Percent Eluted by Fraction, 3M NaCl [3]: 0% | Percent Eluted by Fraction, Flow [3]: 86% | Mass Protein per Eluate Fraction, 1M NaCl [3, 9]: 0.02 mg | Mass Protein per Eluate Fraction, 2% Acetic Acid [3, 9]: 0.02 mg | Mass Protein per Eluate Fraction, Flow [3, 9]: 0.23 mg | Percent Eluted by Fraction, 1M NaCl [4]: 31% | Percent Eluted by Fraction, 2% Acetic Acid [4]: 38% | Percent Eluted by Fraction, 3M NaCl [4]: 0% | Percent Eluted by Fraction, Flow [4]: 31% | Mass Protein per Eluate Fraction, 1M NaCl [4]: 0.10 mg | Mass Protein per Eluate Fraction, 2% Acetic Acid [4]: 0.12 mg | Mass Protein per Eluate Fraction, Flow [4]: 0.10 mg | Mass Protein per Eluate Fraction, 1M NaCl ([5]; 4° C., * Below detection limit): 0.27 mg | Mass Protein per Eluate Fraction, 2% Ac. Acid ([5]; 4° C., * Below detection limit): 0.64 mg | Mass Protein per Eluate Fraction, 3M NaCl ([5]; 4° C., * Below detection limit): 0.04 mg | Mass Protein per Eluate Fraction, Flow ([5]; 4° C., * Below detection limit): 0.03 mg | Percent Eluted by Fraction, 1M NaCl ([5]; 4° C.): 27% | Percent Eluted by Fraction, 2% Ac. Acid ([5]; 4° C.): 66% | Percent Eluted by Fraction, 3M NaCl ([5]; 4° C.): 4% | Percent Eluted by Fraction, Flow ([5]; 4° C.): 3% | Mass Protein per Eluate Fraction, 1M NaCl [5, 10]: 0.11 mg | Mass Protein per Eluate Fraction, 2% Ac. Acid [5, 10]: 0.44 mg | Mass Protein per Eluate Fraction, Flow [5, 10]: 0.29 mg | Percent Eluted by Fraction, 1M NaCl ([5]; 20° C.): 12% | Percent Eluted by Fraction, 2% Ac. Acid ([5]; 20° C.): 53% | Percent Eluted by Fraction, 3M NaCl ([5]; 20° C.): 0% | Percent Eluted by Fraction, Flow ([5]; 20° C.): 35% | Percent Eluted by Fraction, 1M NaCl [6]: 5% | Percent Eluted by Fraction, 2% Acetic Acid [6]: 80% | Percent Eluted by Fraction, 3M NaCl [6]: 0% | Percent Eluted by Fraction, Flow [6]: 15% | Mass Protein per Eluate Fraction, 1M NaCl [6]: 0.05 mg | Mass Protein per Eluate Fraction, 2% Acetic Acid [6]: 0.81 mg | Mass Protein per Eluate Fraction, Flow [6]: 0.15 mg | Mass A1PI in Urea Eluate (mg), Activity [7]: 0.67 mg | Mass A1PI in Urea Eluate (mg), Nephelometry [7]: 0.80 mg | Specific Activity [7]: 0.84 mg/mg

RYRIFI
Percent Eluted by Fraction, 1M NaCl [1]: 0% | Percent Eluted by Fraction, 2% Acetic Acid [1]: 100% | Percent Eluted by Fraction, 3M NaCl [1]: 0% | Percent Eluted by Fraction, Flow [1]: 0% | Mass Protein per Eluate Fraction, 2% Acetic Acid [1]: 0.39 mg | Percent A1PI Eluted by Fraction Based on Absorbance at 280 nm, 1M NaCl [2]: 40% | Percent A1PI Eluted by Fraction Based on Absorbance at 280 nm, 2% Acetic Acid [2]: 60% | Percent A1PI Eluted by Fraction Based on Absorbance at 280 nm, Flowthrough [2]: 0% | Percent A1PI Eluted by Fraction, 1M NaCl [2]: 35% | Percent A1PI Eluted by Fraction, 2% Acetic Acid [2]: 65% | Percent A1PI Eluted by Fraction, Flowthrough [2]: 0% | Mass A1PI per Eluate Fraction, 1M NaCl [8, 11]: 0.15 mg | Mass A1PI per Eluate Fraction, 2% Acetic Acid [8, 11]: 0.25 mg | Mass A1PI per Eluate Fraction, Flowthrough [8, 11]: 0.21 mg | Percent Eluted by Fraction, 1M NaCl [8, 12]: 24% | Percent Eluted by Fraction, 2% Acetic Acid [8, 12]: 41% | Percent Eluted by Fraction, Flowthrough [8, 12]: 35% | Percent Eluted by Fraction, 1M NaCl [3]: 0% | Percent Eluted by Fraction, 2% Acetic Acid [3]: 0% | Percent Eluted by Fraction, 3M NaCl [3]: 0% | Percent Eluted by Fraction, Flow [3]: 100% | Mass Protein per Eluate Fraction, Flow [3, 9]: 0.24 mg | Percent Eluted by Fraction, 1M NaCl [4]: 17% | Percent Eluted by Fraction, 2% Acetic Acid [4]: 60% | Percent Eluted by Fraction, 3M NaCl [4]: 0% | Percent Eluted by Fraction, Flow [4]: 22% | Mass Protein per Eluate Fraction, 1M NaCl [4]: 0.06 mg | Mass Protein per Eluate Fraction, 2% Acetic Acid [4]: 0.23 mg | Mass Protein per Eluate Fraction, Flow [4]: 0.08 mg | Mass Protein per Eluate Fraction, 1M NaCl ([5]; 4° C., * Below detection limit): 0.27 mg | Mass Protein per Eluate Fraction, 2% Ac. Acid ([5]; 4° C., * Below detection limit): 0.71 mg | Percent Eluted by Fraction, 1M NaCl ([5]; 4° C.): 28% | Percent Eluted by Fraction, 2% Ac. Acid ([5]; 4° C.): 72% | Percent Eluted by Fraction, 3M NaCl ([5]; 4° C.): 0% | Percent Eluted by Fraction, Flow ([5]; 4° C.): 0% | Mass Protein per Eluate Fraction, 1M NaCl [5, 10]: 0.21 mg | Mass Protein per Eluate Fraction, 2% Ac. Acid [5, 10]: 0.50 mg | Mass Protein per Eluate Fraction, Flow [5, 10]: 0.22 mg | Percent Eluted by Fraction, 1M NaCl ([5]; 20° C.): 23% | Percent Eluted by Fraction, 2% Ac. Acid ([5]; 20° C.): 53% | Percent Eluted by Fraction, 3M NaCl ([5]; 20° C.): 0% | Percent Eluted by Fraction, Flow ([5]; 20° C.): 24% | Percent Eluted by Fraction, 1M NaCl [6]: 9% | Percent Eluted by Fraction, 2% Acetic Acid [6]: 66% | Percent Eluted by Fraction, 3M NaCl [6]: 0% | Percent Eluted by Fraction, Flow [6]: 25% | Mass Protein per Eluate Fraction, 1M NaCl [6]: 0.07 mg | Mass Protein per Eluate Fraction, 2% Acetic Acid [6]: 0.50 mg | Mass Protein per Eluate Fraction, Flow [6]: 0.19 mg | Mass A1PI in Urea Eluate (mg), Activity [7]: 0.67 mg | Mass A1PI in Urea Eluate (mg), Nephelometry [7]: 0.79 mg | Specific Activity [7]: 0.86 mg/mg
